Laboratory results: PMC4072508, “Genome-Wide Prediction and Validation of Peptides That Bind Human Prosurvival Bcl-2 Proteins” (PLoS Computational Biology, 2014)

B1: MYO3A (peptide)
chain: HTALENCASLLCIRLDELQEALTSHC
B2: RAD52 (peptide)
chain: EAVTDGLKRALRSFGNALGNCILDKD
B3: PRCP (peptide)
chain: DDMFEPHSWNLKELSDDCFQQWGVRP
B4: ITGA7 (peptide)
chain: GSPDSMFGISLAVLGDLNQDGFPDIA
B5: MCF2L (peptide)
chain: VDSIRPKCQELRHLLDQFSAEIARRR
B6: COL2A1 (peptide)
chain: VLLTLLVAAVLRCQLQDVQEAGSCVQ
B7: DYNC1H1 (peptide)
chain: VLAPVQLGKWDVLFCDEINLPDMDKY
B8: EXOC4 (peptide)
chain: MQTLSELAKSFQDMADRCLLVLHLEV
B9: ADAMTS14 (peptide)
chain: AFGLGDLPNLDGLVGDQLGDTERKRR
B10: SLC19A1 (peptide)
chain: ACGDSVLARMDRELGDSLRRPQLRLW
B11: SOS2 (peptide)
chain: LMARPAVALHDQSIADGFKEAVRYVL
B12: FAM149A (peptide)
chain: CGEWTRRSLHLRVLLRQLILPTDKGV
B13: DDX4 (peptide)
chain: FSKREKLVEIDRNIGDERTMVFVETK
B14: SPHKAP (peptide)
chain: TSRINEVQVNLSLLGDDLLLPAQSTL
B15: NCAPH2 (peptide)
chain: QEQEQHVPFDDHTYGDQLVSRFPQLN
B16: IPO5 (peptide)
chain: SEIMHSFAKCIEVMGDGCLNNEHFEE
B17: MYO3A (peptide)
chain: HTALENCASLLCIRADELQEALTSHC
B18: SLC30A7 (peptide)
chain: ELLYGIWSNCLGLILDSFHMFFDSTA
B19: RAD51L3 (peptide)
chain: LALMMQLARELKTLLRDLGMAVVVTN
B20: ATP2A3 (peptide)
chain: KGTAVAICRRDGIFGDTEDVAGKAYT
B21: NOX4 (peptide)
chain: TETKATFGVHLKIVLDWTERFRDLLL
B22: ZNF295 (peptide)
chain: ERLKGQLCDVLLIVGDQKFRAHKNVL
B23: ZFP90 (peptide)
chain: PSECETLGSNDGHNADLLNENNILAK
B24: SIPA1 (peptide)
chain: TAGLRPGARLDRVCGQTLPSLRPEAA
B25: EXOC4 (peptide)
chain: MQTLSELAKSFQDMLDRCLLVLHLEV
B26: CHMP5 (peptide)
chain: ELDEDDLEAELDALGDELLADEDSSY
B27: PRKD3 (peptide)
chain: IQENVDISTVYQIFADEVLGSGQFGI
B28: FADD (peptide)
chain: APGEEDLCAADNVICDNVGKDWRRLA

Target: T1, Bfl-1, Q16548
T1 chain: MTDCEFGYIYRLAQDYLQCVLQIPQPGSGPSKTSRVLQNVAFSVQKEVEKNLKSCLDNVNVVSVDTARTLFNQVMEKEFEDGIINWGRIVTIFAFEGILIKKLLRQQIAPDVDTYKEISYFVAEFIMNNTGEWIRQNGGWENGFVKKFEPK
Test: peptide SPOT array, c-Myc-tagged receptor at 1 uM or 100 nM, anti-c-Myc-Cy3

Row | Binder | SPOT signal as a fraction of Bim BH3's signal on the same receptor and array
1 | B1 | 0.03
2 | B2 | 0.06
3 | B3 | 0.05
4 | B4 | 0.08
5 | B5 | 0.27
6 | B6 | 0.04
7 | B7 | 0.07
8 | B8 | 0.04
9 | B9 | 0.04
10 | B10 | 0.13
11 | B11 | 0.22
12 | B12 | 0.51
13 | B13 | 0.06
14 | B14 | 0.03
15 | B15 | 0.04
16 | B16 | 0.03
17 | B17 | 0.03
18 | B18 | 0.06
19 | B19 | 0.07
20 | B20 | 0.06
21 | B21 | 0.08
22 | B22 | 0.21
23 | B23 | 0.04
24 | B24 | 0.45
25 | B25 | 0.04
26 | B26 | 0.03
27 | B27 | 0.05
28 | B28 | 0.04

Target: T2, Mcl-1, Q07820
T2 chain: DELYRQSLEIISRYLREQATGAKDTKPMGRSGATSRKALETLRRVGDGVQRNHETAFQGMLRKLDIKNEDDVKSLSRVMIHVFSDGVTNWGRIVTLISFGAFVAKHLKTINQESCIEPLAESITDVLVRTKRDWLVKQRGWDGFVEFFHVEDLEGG
Test: as above

Row | Binder | SPOT signal as a fraction of Bim BH3's signal on the same receptor and array
29 | B1 | 0.03
30 | B2 | 0.1
31 | B3 | 0.04
32 | B4 | 0.04
33 | B5 | 0.25
34 | B6 | 0.06
35 | B7 | 0.05
36 | B8 | 0.04
37 | B9 | 0.04
38 | B10 | 0.15
39 | B11 | 0.45
40 | B12 | 0.53
41 | B13 | 0.07
42 | B14 | 0.04
43 | B15 | 0.04
44 | B16 | 0.04
45 | B17 | 0.03
46 | B18 | 0.06
47 | B19 | 0.1
48 | B20 | 0.08
49 | B21 | 0.08
50 | B22 | 0.25
51 | B23 | 0.04
52 | B24 | 0.63
53 | B25 | 0.04
54 | B26 | 0.03
55 | B27 | 0.04
56 | B28 | 0.03

Target: Bcl-xL, Q07817
Test: as above

Chain of Bcl-xL, Q07817 (Q07817 1-209): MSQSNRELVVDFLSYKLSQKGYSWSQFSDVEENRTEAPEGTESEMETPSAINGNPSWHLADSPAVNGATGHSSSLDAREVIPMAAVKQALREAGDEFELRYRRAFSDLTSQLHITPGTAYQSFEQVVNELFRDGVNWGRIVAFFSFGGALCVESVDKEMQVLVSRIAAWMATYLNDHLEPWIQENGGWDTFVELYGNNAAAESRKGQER

Row | Binder | SPOT signal as a fraction of Bim BH3's signal on the same receptor and array
57 | B1 | 0.05
58 | B2 | 0.15
59 | B3 | 0.06
60 | B4 | 0.07
61 | B5 | 0.6
62 | B6 | 0.05
63 | B7 | 0.07
64 | B8 | 0.05
65 | B9 | 0.05
66 | B10 | 0.27
67 | B11 | 0.17
68 | B12 | 0.53
69 | B13 | 0.06
70 | B14 | 0.06
71 | B15 | 0.05
72 | B16 | 0.09
73 | B17 | 0.07
74 | B18 | 0.07
75 | B19 | 0.11
76 | B20 | 0.08
77 | B21 | 0.07
78 | B22 | 0.38
79 | B23 | 0.11
80 | B24 | 0.72
81 | B25 | 0.05
82 | B26 | 0.06
83 | B27 | 0.08
84 | B28 | 0.06
